In patent US20060099150A1:

Assays:
[1] = biological target: pIgR Domain 6 GST (D6-GST) fusion protein, species not stated (Schistosoma japonica) [GST: P08515]; assay: SPR BIAcore, 1:1 Langmuir global fit 62.5-1000 nM; ligand not named
[2] = biological target: pIgR expressed on transfected MDCK cells; assay: cell-based or functional assay

Chain of pIgR Domain 6 GST (D6-GST) fusion protein, species not stated (Schistosoma japonica) [GST: P08515] (P08515 whole entry, the tested form may be a part): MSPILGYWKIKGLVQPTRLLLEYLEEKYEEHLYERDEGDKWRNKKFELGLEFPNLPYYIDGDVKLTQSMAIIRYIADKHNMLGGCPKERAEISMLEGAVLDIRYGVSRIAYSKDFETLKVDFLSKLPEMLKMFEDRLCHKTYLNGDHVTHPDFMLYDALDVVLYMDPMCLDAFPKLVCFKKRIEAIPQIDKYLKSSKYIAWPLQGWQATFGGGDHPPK

Ka [1]: 4.47e+06 M⁻¹
Kd [1]: 224 nM
koff [1]: 0.00464 s⁻¹
kon [1]: 27100 M⁻¹ s⁻¹
transcytosis on pIgR expressing MDCK cells overnight [2]: 2%
B1: sFv5AF (scFv)
scFv: DYKAKQVQLVQSGGGVVQPGRSLRLSCAASGFTFSSYAMHWVRQAPGKGLEWVSAISGSGGSTYYADSVKGRFTISRDNAKNSLYLQMNSLRAEDTAVYYCARDTRGYFDLWGRGTLVTVSSGGGGSGGGGSGGGGSSELTQDPAMSVALGQTVRITCQGDSLRKYHASWYQQRPRQAPRLVVYGKNERPSGIPERFSGSTSGDTASLTISGLQAEDEADYYCHSRDSNADLVVFGGGTKVTVLGAAAEQKLISEEDLNGAAHHHHHH
